Data published in patent US20200339648A1 (University of Washington, published 2020).

T1: mouse IL-2 receptor β subunit (mIL-2Rβ) (mouse, UniProt P16297 27-240, biotin on the C-terminal biotin acceptor peptide)
T1 construct: extracellular domain; Biotinylated form for SPR; also called MmIL-2Rβ; murine IL-2Rβ
T1 sequence: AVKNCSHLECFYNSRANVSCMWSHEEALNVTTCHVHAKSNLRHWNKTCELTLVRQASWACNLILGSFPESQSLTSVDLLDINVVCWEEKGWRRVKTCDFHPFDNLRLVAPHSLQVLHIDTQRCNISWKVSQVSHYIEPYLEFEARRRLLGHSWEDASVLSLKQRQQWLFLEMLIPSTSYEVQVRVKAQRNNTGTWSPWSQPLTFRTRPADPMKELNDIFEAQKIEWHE

T2: human IL-2 receptor β subunit (hIL-2Rβ) (human, UniProt P14784 27-240, biotin on the C-terminal biotin acceptor peptide)
T2 construct: Biotinylated and immobilised on streptavidin; also called HsIL-2Rβ; human IL-2Rβ
T2 sequence: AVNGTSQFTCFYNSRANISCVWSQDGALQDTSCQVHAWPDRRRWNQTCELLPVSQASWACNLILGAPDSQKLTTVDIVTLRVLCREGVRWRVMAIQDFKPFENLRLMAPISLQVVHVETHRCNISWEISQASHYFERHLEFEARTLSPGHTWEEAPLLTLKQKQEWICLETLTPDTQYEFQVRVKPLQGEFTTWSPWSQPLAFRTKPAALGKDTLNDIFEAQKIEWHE

T3: mouse IL-2 receptor βγc heterodimer (mIL-2Rβγc), soluble (mouse, UniProt P16297 27-240; P34902 23-263, biotin on the C-terminal biotin acceptor peptide)
T3 construct: extracellular domain; In SPR and BLI the gamma chain is on the chip or sensor and mIL-2Rβ is added in solution at saturating concentration (5 uM in SPR); also called MmIL-2Rβγc; mIL-2Rβνc
T3 sequence 1: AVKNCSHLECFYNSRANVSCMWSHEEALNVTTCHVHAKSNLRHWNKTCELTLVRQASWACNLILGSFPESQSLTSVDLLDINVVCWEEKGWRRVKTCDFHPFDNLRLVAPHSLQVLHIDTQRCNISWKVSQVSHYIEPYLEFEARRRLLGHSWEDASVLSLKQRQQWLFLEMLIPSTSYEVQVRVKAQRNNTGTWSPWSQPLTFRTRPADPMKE
T3 sequence 2: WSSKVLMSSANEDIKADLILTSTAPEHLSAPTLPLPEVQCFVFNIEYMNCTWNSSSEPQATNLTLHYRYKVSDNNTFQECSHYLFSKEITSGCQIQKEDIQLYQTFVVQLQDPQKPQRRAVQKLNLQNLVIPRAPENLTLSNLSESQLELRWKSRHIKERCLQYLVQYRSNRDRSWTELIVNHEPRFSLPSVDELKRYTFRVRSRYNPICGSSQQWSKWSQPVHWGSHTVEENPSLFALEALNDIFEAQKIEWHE

T4: human IL-2 receptor α subunit (hIL-2Rα) (human, UniProt P01589 22-238, biotin on the C-terminal biotin acceptor peptide)
T4 construct: range 1-217; Biotinylated and immobilised on streptavidin; also called human IL-2Rα; CD25
T4 sequence: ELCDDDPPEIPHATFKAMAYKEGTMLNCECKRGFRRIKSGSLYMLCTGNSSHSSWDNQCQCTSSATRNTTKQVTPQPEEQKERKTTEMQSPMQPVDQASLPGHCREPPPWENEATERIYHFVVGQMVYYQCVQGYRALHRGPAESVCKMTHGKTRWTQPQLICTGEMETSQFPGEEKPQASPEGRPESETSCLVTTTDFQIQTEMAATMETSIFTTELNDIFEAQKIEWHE

T5: mouse IL-2 receptor α subunit (mIL-2Rα) (mouse, UniProt P01590 22-236, biotin on the C-terminal biotin acceptor peptide)
T5 construct: extracellular domain; Biotinylated and immobilised on streptavidin; also called murine IL-2Rα
T5 sequence: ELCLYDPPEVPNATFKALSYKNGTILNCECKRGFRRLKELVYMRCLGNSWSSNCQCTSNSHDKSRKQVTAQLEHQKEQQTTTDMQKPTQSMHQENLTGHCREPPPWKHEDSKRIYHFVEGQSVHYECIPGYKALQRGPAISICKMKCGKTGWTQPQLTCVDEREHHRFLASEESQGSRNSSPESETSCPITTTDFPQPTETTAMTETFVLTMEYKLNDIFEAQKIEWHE

T6: mouse IL-2Rβγc on murine cells (CTLL-2 T cells, primary CD4+ T cells) (mouse, UniProt P16297 27-539; P34902 23-369)
T6 sequence (looked up) 1: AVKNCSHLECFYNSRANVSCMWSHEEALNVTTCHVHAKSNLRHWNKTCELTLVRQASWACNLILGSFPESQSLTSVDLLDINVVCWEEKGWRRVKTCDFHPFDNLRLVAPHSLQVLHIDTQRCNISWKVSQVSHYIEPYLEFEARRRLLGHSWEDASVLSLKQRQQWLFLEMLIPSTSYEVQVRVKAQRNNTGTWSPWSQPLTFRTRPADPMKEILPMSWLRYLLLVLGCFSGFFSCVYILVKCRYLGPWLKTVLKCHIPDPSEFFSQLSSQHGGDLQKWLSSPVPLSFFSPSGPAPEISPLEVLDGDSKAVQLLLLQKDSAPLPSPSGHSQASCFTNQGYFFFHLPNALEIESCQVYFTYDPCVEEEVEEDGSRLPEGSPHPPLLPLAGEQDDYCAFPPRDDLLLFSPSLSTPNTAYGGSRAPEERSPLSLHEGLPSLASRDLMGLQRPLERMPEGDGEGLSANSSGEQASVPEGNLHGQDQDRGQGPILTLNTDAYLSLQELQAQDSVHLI
T6 sequence (looked up) 2: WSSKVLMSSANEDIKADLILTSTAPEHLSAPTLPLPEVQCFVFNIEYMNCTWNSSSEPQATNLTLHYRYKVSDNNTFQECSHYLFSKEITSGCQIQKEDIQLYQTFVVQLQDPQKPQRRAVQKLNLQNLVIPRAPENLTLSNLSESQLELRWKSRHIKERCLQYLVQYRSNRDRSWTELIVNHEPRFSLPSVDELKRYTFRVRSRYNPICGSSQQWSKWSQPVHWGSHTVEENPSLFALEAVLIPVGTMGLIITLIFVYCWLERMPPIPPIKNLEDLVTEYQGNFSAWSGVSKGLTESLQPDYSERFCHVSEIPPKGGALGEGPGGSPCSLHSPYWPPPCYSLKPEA


Legend:
[1] = target: T1, mouse IL-2 receptor β subunit (mIL-2Rβ); test: SPR, equilibrium titration; biotinylated IL-2Rβ on streptavidin chip
Protocol: (§1) Less than 100 response units (RU) of each ligand was immobilized to minimize mass transfer effects. […] Surface regeneration for all interactions was conducted using 15 s exposure to 1 M MgCl2 in 10 mM sodium acetate pH 5.5. SPR experiments were carried out in HBS-P+ buffer (GE Healthcare) supplemented with 0.2% bovine serum albumin (BSA) at 25° C. and all binding studies were performed at a flow rate of […] to prevent analyte rebinding. Data was visualized and processed using the Biacore T100 evaluation software version 2.0 (GE Healthcare). Equilibrium titration curve fitting and equilibrium binding dissociation (KD) value determination was implemented using GraphPad Prism assuming all binding interactions to be first order. Biolayer interferometry: binding data were collected in a Octet RED96 (ForteBio, Menlo Park, Calif.) and processed using the instrument's integrated software using a 1:1 binding model. […] Analyte proteins were diluted from concentrated stocks into binding buffer. After baseline measurement in binding buffer alone, the binding kinetics were monitored by dipping the biosensors in wells containing 100 nM of the designed protein (association) and then dipping the sensors back into baseline wells (dissociation).

[2] = target: T2, human IL-2 receptor β subunit (hIL-2Rβ); test: as above
Protocol: as §1

[3] = target: human IL-2Rβγc on human cells (YT-1 NK cells) (human) (UniProt P14784); test: cell-based or functional assay
[4] = target: human IL-2 receptor βγc heterodimer (hIL-2Rβγc), soluble (human) (UniProt P14784); test: SPR, equilibrium titration; IL-2Rγ on streptavidin chip, saturating IL-2Rβ in solution
[5] = target: mouse IL-2 receptor βγc heterodimer (mIL-2Rβγc), soluble (mouse) (UniProt P16297); test: as above
[6] = target: T3, mouse IL-2 receptor βγc heterodimer …; test: biolayer interferometry; biotin-mIL2Gamma on streptavidin biosensor, MSA-Neo2 titrated from 729 to 1 nM with saturating mIL2Beta
[7] = target: T4, human IL-2 receptor α subunit (hIL-2Rα); test: SPR, biotinylated receptor on streptavidin chip
Protocol: as §1

[8] = target: T5, mouse IL-2 receptor α subunit (mIL-2Rα); test: SPR, biotinylated receptor on streptavidin chip
Protocol: as §1

[9] = target: T6, mouse IL-2Rβγc on murine cells (CTLL-2 …); test: cell-based or functional assay
[10] = target: T6, mouse IL-2Rβγc on murine cells (CTLL-2 …); test: cell-based or functional assay; remark: listed apart in the source
[11] = target: T3, mouse IL-2 receptor βγc heterodimer …; test: SPR, equilibrium titration; IL-2Rγ on streptavidin chip, saturating IL-2Rβ in solution
Protocol: as §1

Molecule	Kd [1]	Kd [2]	EC50 (CD25-) pSTAT5p, human NK (YT, CD25-) cells [3]	Kd [4]	Kd [5]	Kd [6]	binding result [7]	binding result [8]	EC50 (CD25+) pSTAT5, murine T (CTLL-2, CD25+) cells [9]	EC50 of pSTAT5 signaling, murine CD4+ primary cells ex vivo, CD25+ [10]	EC50 of pSTAT5 signaling, murine CD4+ primary cells ex vivo, CD25- [10]	Kd [11]
Super-2/Superkine (PDB: 3QAZ) (ligand)	214 nM	2 nM	70 pM	301 nM	312 nM	–	–	–	–	–	–	–
Mouse Serum Albumin (MSA) fusion to Neoleukin-2/15 (other, also called MSA-Neo2) GSDGGSHHHHHHGSGSENLYFQGSGEAHKSEIAHRYNDLGEQHFKGLVLIAFSQYLQKCSYDEHAKLVQEVTDFAKTCVADESAANCDKSLHTLFGDKLCAIPNLRENYGELADCCTKQEPERNECFLQHKDDNPSLPPFERPEAEAMCTSFKENPTTFMGHYLHEVARRHPYFYAPELLYYAEQYNEILTQCCAEADKESCLTPKLDGVKEKALVSSVRQRMKCSSMQKFGERAFKAWAVARLSQTFPNADFAEITKLATDLTKVNKECCHGDLLECADDRAELAKYMCENQATISSKLQTCCDKPLLKKAHCLSEVEHDTMPADLPAIAADFVEDQEVCKNYAEAKDVFLGTFLYEYSRRHPDYSVSLLLRLAKKYEATLEKCCAEANPPACYGTVLAEFQPLVEEPKNLVKTNCDLYEKLGEYGFQNAILVRYTQKAPQVSTPTLVEAARNLGRVGTKCCTLPEDQRLPCVEDYLSAILNRVCLLHEKTPVSEHVTKCCSGSLVERRPCFSALTVDETYVPKEFKAETFTFHSDICTLPEKEKQIKKQTALAELVKHKPKATAEQLKTVMDDFAQFLDTCCKAADKDTCFSTEGPNLVTRCKDALAGGGSGGSGGGSGGSGSGPKKKIQLHAEHALYDALMILNIVKTNSPPAEEKLEDYAFNFELILEEIARLFESGDQKDEAEKAKRMKEWMKRIKTTASEDEQEEMANAIITILQSWIFS	–	–	–	–	–	33.5 nM	–	–	–	–	–	–
Neoleukin-2/15 (designed binder, 100 residues; also called Neo-2/15; Neolukin-2/15) PKKKIQLHAEHALYDALMILNIVKTNSPPAEEKLEDYAFNFELILEEIARLFESGDQKDEAEKAKRMKEWMKRIKTTASEDEQEEMANAIITILQSWIFS	16.1 nM	–	–	–	–	–	no binding	no binding	70 pM	~24 pM	~129 pM	38.4 nM
